In patent US20210238276A1 (INTEGRAL MOLECULAR, published 2021):
Where a chain is given by its changes, count along the chain named.

T1: hsGLUT4 G414A (human, UniProt P14672 1-509)
T1 sequence: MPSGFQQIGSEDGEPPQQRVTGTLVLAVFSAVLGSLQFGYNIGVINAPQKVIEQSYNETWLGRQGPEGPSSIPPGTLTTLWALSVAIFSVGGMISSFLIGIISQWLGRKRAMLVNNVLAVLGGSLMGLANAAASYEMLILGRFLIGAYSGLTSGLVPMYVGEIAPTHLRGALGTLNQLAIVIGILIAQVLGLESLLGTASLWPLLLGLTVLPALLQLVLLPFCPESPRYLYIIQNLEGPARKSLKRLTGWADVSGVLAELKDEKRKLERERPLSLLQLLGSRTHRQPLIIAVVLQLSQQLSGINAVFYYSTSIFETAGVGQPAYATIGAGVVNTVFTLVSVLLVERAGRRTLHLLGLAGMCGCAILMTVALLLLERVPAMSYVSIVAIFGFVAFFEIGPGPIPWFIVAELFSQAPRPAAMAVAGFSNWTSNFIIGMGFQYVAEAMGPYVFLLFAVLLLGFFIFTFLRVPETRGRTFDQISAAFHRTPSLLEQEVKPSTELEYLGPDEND

T2: hsGLUT4 I313A (human, UniProt P14672 1-509)
T2 sequence: T1 sequence with I313A, A414G

T3: hsGLUT4 G504A (human, UniProt P14672 1-509)
T3 sequence: T1 sequence with A414G, G504A

T4: hsGLUT4 G65A (human, UniProt P14672 1-509)
T4 sequence: T1 sequence with G65A, A414G

B1: AB111 (Fc fusion)
scFv: ALTQPSSVSANPGETVKITCSGSGSWYGWFQQKSPGSAPVTVIYSNDKRPSDIPSRFSGSKSGSTSTLTITGVQVEDEAVYYCGNWDIFGAGTTLTVLGQSSRSSGGGGSSGGGGSAVTLDESGGGLQTPGGALSLVCKASGFTFSSHGMGWVRQAPGKGLEWVASISTGRYTFYAPAVKGRATISRDNGQSTVRLQLNNLRAEDTATYYCTKCAGLNGCGGGEIDAWGHGTEVIVSS
notes: Bivalent scFv-Fc; also called MAb AB111; not shown: Fc fragment of human IgG1, cloned in frame with the scFv
B2: AB101 (scFv)
scFv: ALTQPSSVSANPGETVKITCSGSSNSYGWYQQKSPGSAPVTVIYYNDKRPSDIPSRFSGSKSDSTHTLTITGVRAEDEAVYFCGSYDSTYVGIFGAGTTLTVLGQSSRSSGGGGSSGGGGSAVTLDESGGGLQTPGGTLSLVCKASGFTFSSNAMGWVRQAPGKGLEWVAGISSDGRYTKYGSAVKGRATISRDNGQSTVRLQLNNLRAEDTGTYFCAKAFGNNYRRIYAGQIDAWGHGTEVIVSS
notes: Chicken-derived clone used as a control; the four lead clones were tested as scFv-human IgG1 Fc; also called MAb AB101
B3: AB108 (Fc fusion)
scFv: ALTQPSSVSANLGGTVKITCSGSSGSYGWYQQKAPGSAPVTLIYRNDKRPSDIPSRFSGSESGSTGTLTITGVQAEDEAVYFCGGYDSSAGYAAFGAGTTLTVLGQSSRSSGGGGSSGGGGSAVTLDESGGGLQTPGGALSLVCKASGFTFSSHGMGWVRQAPGKGLEWVGSISTGRYTFYAPAVKGRATISRDNGQSTLRLQLNNLRAEDTGTYYCTKCAGLNGCGGGEIDAWGHGTEVIVSS
notes: Bivalent scFv-Fc; also called MAb AB108; not shown: Fc fragment of human IgG1, cloned in frame with the scFv

Legend:
Test in all cases: flow cytometry, alanine-scan library in HEK-293T
hsGLUT4 G414A = target: T1, hsGLUT4 G414A
Method: (§1) Because of the state-dependence of the isolated MAbs, we next wished to understand the mechanism by which each MAb could recognize GLUT4 in its different conformations. The residues required for binding of each MAb were determined using shotgun mutagenesis comprehensive alanine scanning (Davidson E & Doranz B J (2014) A High-Throughput Shotgun Mutagenesis Approach to Mapping B-cell Antibody Epitopes. Immunology, which is hereby incorporated by reference in its entirety). All residues of hsGLUT4 were individually mutated to alanine, with existing alanines changed to serines. Mutations were obtained for 508 of the 509 residues of GLUT4 (excluding the initiating methionine). The entire mutation library was transfected into human HEK-293T cells in a 384-well array format (one clone per well) and assessed for immunoreactivity using high-throughput flow cytometry.
(§2) HEK-293T cells were transfected by CaPO₄ with plasmids in 6-well culture plates (Falcon) at 750,000 cells/well. At 48 hours post transfection, cells were stained with anti-V5 and anti-GLUT4 MAbs (purified scFv, 2 μg/ml) followed by biotinylated goat anti-mouse or human antibody (1:500) and streptavidin-PerCP (1:500). Fluorescence was detected using an Intellicyt high-throughput flow cytometer (HTFC; Intellicyt, Albuquerque, N. Mex.). For cell permeabilization, cells were treated with saponin at 0.1% in PBS for 20 minutes. To discriminate intact (live) and permeabilized (dead) cells without the use of detergent, propidium iodide (PI) was added to HEK-293T cells at 1 ug/ml just prior to flow cytometry. Where indicated, cytochalasin B (Sigma) was used at a final concentration of 10 uM and phloretin (Sigma) was used at a final concentration of 100 uM, each added in 10% NGS for 30 minutes prior to antibody staining as well as included with the primary antibody.

hsGLUT4 I313A = target: T2, hsGLUT4 I313A
Method: as §1, §2

hsGLUT4 G504A = target: T3, hsGLUT4 G504A
Method: as §1, §2

hsGLUT4 G65A = target: T4, hsGLUT4 G65A
Method: as §1, §2

Molecule	% of binding to wild type GLUT4 (hsGLUT4 G414A) [%]	% of binding to wild type GLUT4 (hsGLUT4 I313A) [%]	% of binding to wild type GLUT4 (hsGLUT4 G504A) [%]	% of binding to wild type GLUT4 (hsGLUT4 G65A) [%]
1F8 (antibody)	78	85	120	95
B1	109	106	172	15
B2	83	94	8	87
B3	80	39	141	1
